Where no end group is shown, it is not given here.
B1: human VIP (vasoactive intestinal polypeptide) (peptide, UniProt P01282 125-152, looked up)
peptide: HSDAVFTDNYTRLRKQMAVKKYLNSILN
modifications: not fully specified; ends and bridges not checked
notes: domain: VIP; also called vasoactive intestinal peptide

Tests used:
human TGR12 = molecular target: T1, human TGR12 (Homo sapiens, UniProt Q96LB1); test: MAPK (ERK1/2) activation in human TGR12-expressed CHO cells (western blotting); format: cell-based; conditions: CHO-TGR12, PTX 0.1 μg/mL 4 hours before the assay
T1 construct: expressed in transfected cells
T1 sequence (Q96LB1 1-330): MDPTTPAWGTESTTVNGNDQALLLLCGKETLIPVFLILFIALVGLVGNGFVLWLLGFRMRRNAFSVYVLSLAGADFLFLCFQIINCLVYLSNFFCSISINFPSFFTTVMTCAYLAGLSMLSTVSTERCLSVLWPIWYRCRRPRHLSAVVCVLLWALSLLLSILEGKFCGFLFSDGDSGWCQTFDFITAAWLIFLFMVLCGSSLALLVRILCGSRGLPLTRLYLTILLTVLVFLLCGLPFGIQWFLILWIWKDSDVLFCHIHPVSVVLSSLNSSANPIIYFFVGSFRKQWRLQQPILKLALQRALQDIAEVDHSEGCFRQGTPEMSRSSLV
Protocol: CHO/dhfr^− cells (hereinafter CHO) were incubated in α-MEM (Invitrogen) containing 10% fetal calf serum. […] CHO-TGR12 was incubated in nucleic acid-free α-MEM (Invitrogen) containing 10% dialyzed fetal calf serum.
The cells were prepared as follows. […] After centrifugation, the deposited cells were suspended in the medium at 2×10^5 cells/ml and 1 mL each was plated in a 12-well cell culture dish. After incubation overnight in a CO2 incubator, the medium was aspirated and washed with PBS. […] Pertussis toxin (hereinafter PTX) was added at a final concentration of 0.1 μg/mL 4 hours before the assay.
Activation of the cells was performed as follows. The medium was aspirated and washed with PBS.
Detection by SDS-PAGE and western blotting was performed as follows. After resolving on a 10% Bis-Tris gel (Invitrogen), the proteins were transferred onto Immune-Blot PVDF membrane (BIO-RAD). The membrane was blocked in Block Ace (Dainippon Pharmaceutical), incubated at room temperature for an hour using a primary antibody (phospho-p42/p44 MAP kinase (Thr202/Thr204) antibody (CST) or p42/p44 MAP kinase antibody (CST)) and then incubated at room temperature for an hour using a secondary antibody (anti-rabbit IgG (CST)). The membrane after the antibody reaction was visualized by chemiluminescence with ECL PLUS (Amersham Biosciences), followed by detection and image analysis using LAS1000 (FUJI FILM).

[1] = molecular target: T2, TGR12-GFP (fused protein of human TGR12 and GFP, encoded by the DNA of SEQ ID NO: 45), stably expressed on … (human, UniProt Q96LB1 1-330); test: competition with 200 pM [125I]-rCST14 (Y0) on CHO-TGR12GFP cells, Hill plot
T2 construct: also called TGR12-GFP expression CHO cell line; not shown: GFP (Wako Pure Chemical) fused after the C-terminus of TGR12
T2 sequence: T1 sequence (Q96LB1 1-330)
Protocol: The binding assay using CHO-TGR12GFP was performed as follows. […] After incubation overnight, the cells were washed 3 times with ice-chilled assay buffer (MEM-α, 20 mM HEPES (pH 7.4), 0.05% BSA) and 250 μL of the assay buffer was added thereto. […] After washing 3 times with 500 μL of the assay buffer, the cells were lysed in 250 μL of 0.5N NaOH and the lysate was recovered for measurement of the radioactivity.
Based on the above, non-specific binding was estimated as the activity of 10 μM rat cortistatin-14 and the IC₅₀ value of each peptide was obtained from Hill plot analysis.

human TGR12 (untagged) = molecular target: T3, human TGR12 (untagged) (human, UniProt Q96LB1 1-330); test: cell-based or functional assay
T3 sequence: T1 sequence (Q96LB1 1-330)

[2] = molecular target: T4, TGR12-GFP (fused protein of human TGR12 and GFP, encoded by the DNA of SEQ ID NO: 31), stably expressed on … (human, UniProt Q96LB1 1-330); test: cell-based or functional assay
T4 sequence: T1 sequence (Q96LB1 1-330)

| Molecule | attenuation by pretreatment of phosphorylation of ERK1/2 with ATP (human TGR12) | effect of pretreatment on phosphorylation of ERK1/2 by substance P (human TGR12) | IC50 [1] [nM] | EC50 in the degranulation on LAD 2 (human TGR12 (untagged)) [nM] | degranulation of LAD 2 (beta-hexosaminidase release, % of total) at 10 nM (human TGR12 (untagged)) [%] | degranulation of LAD 2 (beta-hexosaminidase release, % of total) at 30 nM (human TGR12 (untagged)) [%] | degranulation of LAD 2 (beta-hexosaminidase release, % of total) at 100 nM (human TGR12 (untagged)) [%] | degranulation of LAD 2 (beta-hexosaminidase release, % of total) at 300 nM (human TGR12 (untagged)) [%] | degranulation of LAD 2 (beta-hexosaminidase release, % of total) at 3 µM (human TGR12 (untagged)) [%] | EC50 in the calcium increasing effect on CHO-TGR12 [2] [nM] | maximum activity in the calcium increasing effect (FLIPR), CHO-TGR12, at 0.3 nM [2] [fluorescence intensity] | maximum activity in the calcium increasing effect (FLIPR), CHO-TGR12, at 3 nM [2] [fluorescence intensity] | maximum activity in the calcium increasing effect (FLIPR), CHO-TGR12, at 30 nM [2] [fluorescence intensity] | maximum activity in the calcium increasing effect (FLIPR), CHO-TGR12, at 300 nM [2] [fluorescence intensity] | maximum activity in the calcium increasing effect (FLIPR), CHO-TGR12, at 3000 nM [2] [fluorescence intensity] |
| --- | --- | --- | --- | --- | --- | --- | --- | --- | --- | --- | --- | --- | --- | --- | --- |
| Pertussis toxin [PTX] | not observed | attenuated | – | – | – | – | – | – | – | – | – | – | – | – | – |
| B1 | – | – | 2040 | ~105 | 1.5 | 4 | 36.7 | 63.9 | 76.1 | ~305 | 56 | 60 | 16 | 11200 | 24000 |

From patent publication US20100068208A1, “Degranulation inhibitor” (priority 2005, published 2010)
